Sequences and labels used below:
B1: His-TCP21 (natural protein)
chain: not shown
notes: TCP21 (AT5G08330), Arabidopsis thaliana; Cloned into BamHI/SalI-digested pET32a; also called recombinant His-TCP21; pET32a-TCP21; source: E. coli Rosetta (DE3), purified (Ni-NTA agarose)
B2: GST-DSK2B CT (domain or fragment, Arabidopsis thaliana, UniProt Q9SII8 237-551, looked up)
chain: MRNTDRAMSNIESMPEGFNMLRRMYENVQEPLMNATTMSGNAGNNTGSNPFAALLGNQGVTTQGSDASNNSSTPNAGTGTIPNANPLPNPWGATGGQTTAPGRTNVGGDARSPGLGGLGGLGSLGGLGGLGMLGADSPLGATPDASQLSQLLQNPAISQMMQSVFSNPQYMNQLMSLNPQLRSMLDSNPQLREMMQNPDFLRQFSSPEMMQQMMTLQQSLSQNRNTASQDAGQTGAATGNNGGLDLLMNMFGSLGAGGLSGTNQSNVPPEERYATQLQQLQEMGFYDRAENIRALLATNGNVNAAVERLLGSIGQ
notes: DSK2B (AT2G17200), Arabidopsis thaliana, C-terminus (DSK2BCT); the limits 237 to 552 a.a. are printed for the two-hybrid construct DSK2B-CT of the same name; Cloned into EcoRI-digested pGEX-4T-1; also called pGEX-4T-1-DSK2CT; source: E. coli Rosetta (DE3), purified (GST agarose)
B3: His-TCP7 (natural protein)
chain: not shown
notes: TCP7 (AT5G23280), Arabidopsis thaliana; Cloned into BamHI/SalI-digested pET32a; also called recombinant His-TCP7; pET32a-TCP7; source: E. coli Rosetta (DE3), purified (Ni-NTA agarose)

Common to all, as to experiment: pull-down; GST pull-down: GST or GST-DSK2BCT incubated with His-tagged TCP in 50 mM Tris-HCl pH 7.5, 150 mM NaCl, 0.5% Triton X-100, 1 mM PMSF at 4 C for 3 h, then GST beads 1 h; blots anti-GST and anti-His
What all share (details): both partners purified

The experiment “GST-DSK2B CT” deals with B2.
The target of another experiment is T1, His-TCP15 (Arabidopsis thaliana, UniProt Q9C9L2 1-325).
T1 construct: TCP15 (AT1G69690), Arabidopsis thaliana; Cloned into BamHI/SalI-digested pET32a; also called recombinant His-TCP15; pET32a-TCP15; source: E. coli Rosetta (DE3), purified (Ni-NTA agarose)

Another experiment deals with T2, His-TCP14 (Arabidopsis thaliana, UniProt Q93Z00 1-489).
T2 construct: TCP14 (AT3G47620), Arabidopsis thaliana; Cloned into BamHI/SalI-digested pET32a; also called recombinant His-TCP14; pET32a-TCP14; source: E. coli Rosetta (DE3), purified (Ni-NTA agarose)
T2 sequence (Q93Z00 whole entry): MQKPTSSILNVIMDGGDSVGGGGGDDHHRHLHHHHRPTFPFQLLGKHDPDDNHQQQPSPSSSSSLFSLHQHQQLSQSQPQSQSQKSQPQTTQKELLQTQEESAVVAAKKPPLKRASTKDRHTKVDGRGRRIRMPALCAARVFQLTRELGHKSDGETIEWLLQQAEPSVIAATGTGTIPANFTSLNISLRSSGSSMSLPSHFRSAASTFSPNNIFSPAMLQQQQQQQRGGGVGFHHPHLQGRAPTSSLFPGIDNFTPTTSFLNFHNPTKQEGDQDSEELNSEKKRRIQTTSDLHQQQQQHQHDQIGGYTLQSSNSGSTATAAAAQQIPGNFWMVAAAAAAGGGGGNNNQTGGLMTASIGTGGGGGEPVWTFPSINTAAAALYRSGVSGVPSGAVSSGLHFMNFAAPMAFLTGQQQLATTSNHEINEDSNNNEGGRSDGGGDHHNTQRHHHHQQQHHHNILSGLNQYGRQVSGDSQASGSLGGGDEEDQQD

In the case of B1, the binding result with GST-DSK2B CT is reported as “binds”.

Turning to B2, the binding result in the experiment with His-TCP15 and with His-TCP14 was “binds” in each case.

Regarding B3, the binding result with GST-DSK2B CT is on record as “binds”.

Source of the values: article PMC12287301, “DSK2-mediated degradation of F-box protein LAO1 and class I TCPs modulates the nitrogen starvation response” (EMBO Reports, 2025).
